In US20070254831A1 (published 2007):
Where two headings read alike, the source gives them in different places. Blank lines part the entries; values can stand above or below the binder they belong to. Bridge positions count the residues as written; N and C are the ends. Square brackets hold non-standard residues; d marks the D form. Ends that are not written are not given here.

Legend:
[1] = target: T1, soluble human FcRn (human, UniProt P55899 24-297; P61769 21-119, biotinylated (Sulfo-NHS-LC-Biotin) in the ELISA; amine-coupled to CM5 chip in SPR); assay: ELISA, competitor human IgG
T1 construct: also called shFcRn; biotinylated shFcRn
Method: (§1) The wells were coated with 100 μl/well of 1 μg/ml biotinylated-shFcRn in Buffer A. The plate was sealed and incubated at 37° C. for 2 hours. Afterwards, the plate washed with 200 μl/well of Buffer B (Buffer B: 100 mM MES pH 6, 150 mM NaCl, 0.5% BSA IgG-free (Jackson ImmunoResearch, West Grove, Pa.), 0.05% Tween-20). […] To allow for mixing, the plate was rocked for 2 minutes, sealed and incubated at 37° C. for 2 hours. […] The plate was covered, incubated for 30 minutes at room temperature and washed 4 times with 200 μl/well of ice-cold buffer B. SureBlue TMB substrate solution (100 μl/well, KPL, Gaithersburg, Md.) was added and the plate was allowed to incubate at room temperature until color developed, which took 5 to 10 minutes. Once color developed, 100 μl/well of TMB stop solution (KPL, Gaithersburg, Md.) was added and the absorbance was measured at 450 nm. The data was plotted as absorbance vs. peptide concentration to derive the inhibitory concentration 50% (IC₅₀) values.

[2] = target: T1, soluble human FcRn; assay: SPR, pH 6
Method: (§2) The following steps were performed to cross-link soluble human or cynomolgus FcRn to the dextran surface of a CM5 sensor chip (Biacore AB, Uppsala, Sweden) by an amine coupling reaction involving 1-ethyl-(3-dimethylaminopropyl)-carbodiimide hydrochloride (EDC) (Biacore AB, Uppsala, Sweden) and N-hydroxysuccinimide (NHS) (Biacore AB, Uppsala, Sweden) as recommended by Biacore (BIAapplications Handbook, version AB, section 4.2, Biacore AB, Uppsala, Sweden). […] Residual sites on the FcRn flow cell were blocked with 1 M ethanolamine hydrochloride pH 8.5 (Biacore AB, Uppsala, Sweden). A control flow cell was blocked with ethanolamine for reference subtraction. For analysis of the monomeric peptides, FcRn was coated to a final density of 4000-5000 response units (RU). For analysis of the peptide dimers, FcRn was coated to a density of 2000-2500 RU. All SPR measurements were performed using a BIACORE 3000 Instrument (Biacore AB Uppsala, Sweden). For measurements done at either pH 6 or pH 7.4, experiments were performed in 50 mM phosphate, 100 mM sodium chloride, 0.01% surfactant P20 (Biacore AB, Uppsala, Sweden).
(§3) Ten, 2-fold dilutions of the peptide were injected over the FcRn-CM5 chip at a rate of 20 μl/min for 2 min. The peptide was dissociated from the chip for 2.5 minutes with buffer. Any remaining peptide was removed from the chip with a 30 second injection of HBS-P buffer (Biacore AB, Uppsala, Sweden) at a rate of 30 μl/min. Sensorgrams were generated and analyzed using BiaEval software version 3.1 (Biacore AB, Uppsala, Sweden). The equilibrium RU observed for each injection was plotted against concentration. The equilibrium KD values were derived by analysis of the plots using the steady state affinity model included in the BiaEval software.

[3] = target: T1, soluble human FcRn; assay: SPR, pH 7.4
Method: as §2, §3

[4] = target: T1, soluble human FcRn; assay: ELISA, competitor human IgG; remark: listed apart in the source
Method: as §1

[5] = target: T1, soluble human FcRn; assay: SPR, pH 6; remark: listed apart in the source
Method: as §2, §3

[6] = target: T1, soluble human FcRn; assay: ELISA, competitor human IgG; remark: listed apart in the source
Method: as §1

[7] = target: T1, soluble human FcRn; assay: ELISA, competitor human IgG; remark: listed apart in the source
Method: as §1

[8] = target: T1, soluble human FcRn; assay: ELISA, competitor human IgG; remark: listed apart in the source
Method: as §1

[9] = target: T1, soluble human FcRn; assay: ELISA, competitor human IgG; remark: listed apart in the source
Method: as §1

[10] = target: T1, soluble human FcRn; assay: SPR, pH 6; remark: listed apart in the source
Method: as §2, §3

- IC50 [1]: 100 µM
B1: Peptide No. 210 (peptide)
peptide: RFVTGHFG[dP]WYPANGP-NH2
modifications: N-terminus assumed
SMILES: CC(C)[C@H](NC(=O)[C@H](Cc1ccccc1)NC(=O)[C@@H](N)CCCNC(=N)N)C(=O)N[C@H](C(=O)NCC(=O)N[C@@H](Cc1c[nH]cn1)C(=O)N[C@@H](Cc1ccccc1)C(=O)NCC(=O)N1CCC[C@@H]1C(=O)N[C@@H](Cc1c[nH]c2ccccc12)C(=O)N[C@@H](Cc1ccc(O)cc1)C(=O)N1CCC[C@H]1C(=O)N[C@@H](C)C(=O)N[C@@H](CC(N)=O)C(=O)NCC(=O)N1CCC[C@H]1C(N)=O)[C@@H](C)O

- Kd [2]: 0.074 µM
- Kd [3]: 0.073 µM
Binder: RFXTGXFGGLYPC (Pen at 3; 4GuanylPhe at 6; Sar at 9; NMeLeu at 10; disulfide; C-terminal amide) [Peptide No. 257]

- Kd [2]: 0.19 µM
- Kd [3]: 0.46 µM
- IC50 [6]: 4.4 µM
Binder: RFXTGXFGGLYPC (Pen at 3; His(Me)2 (di-methylated histidine) at 6; disulfide; C-terminal amide) [Peptide No. 260]

- Kd [2]: 0.067 µM
- Kd [3]: 0.28 µM
- IC50 [6]: 1.3 µM
B2: Peptide No. 268 (peptide)
peptide: RFXTGXFGGLYPC
modifications: Pen at 3; 4-PyridylAla at 6; Sar at 9; NMeLeu at 10; disulfide; C-terminal amide

- IC50 [7]: > 125 µM
Binder: QRFCTAHFGGLYPCNGP-NH2 (disulfide 4-14 (inferred)) [SEQ ID NO:28]

- IC50 [7]: > 125 µM
Binder: QRFCTGAFGGLYPCNGP-NH2 (disulfide 4-14 (inferred)) [SEQ ID NO:29]

- IC50 [7]: > 125 µM
Binder: QRFCTGHFGALYPCNGP-NH2 (disulfide 4-14 (inferred)) [SEQ ID NO:32]

- IC50 [7]: > 125 µM
Binder: QRFCTGHFGGLAPCNGP-NH2 (disulfide 4-14 (inferred)) [SEQ ID NO:34]

- IC50 [7]: > 125 µM
Binder: QRFCTGHAGGLYPCNGP-NH2 (disulfide 4-14 (inferred)) [SEQ ID NO:30]

- Kd [2]: 2 µM
- Kd [3]: 3 µM
- IC50 [6]: 45 µM
B3: Peptide No. 251 (peptide)
peptide: RFXTGXFGGLYPC
modifications: not fully specified; Pen at 3; ThienylAla at 6; Sar at 9; NMeLeu at 10; disulfide; C-terminal amide

- IC50 [8]: 0.62 µM
B6: Peptide No. 239 (peptide)
peptide: RFXTGHFXLYPC
modifications: Pen at 3; X at 8 = 3(S)-3-amino-2-oxo-1-azepine acetic acid; NMeLeu at 9; disulfide; C-terminal amide

- IC50 [4]: 3.7 µM
Binder: RFXTGHXGGLYPC (Pen at 3; 3-Cl-Phe at 7; disulfide; C-terminal amide) [Peptide No. 222]

- Kd [2]: 0.14 µM
- Kd [3]: 0.38 µM
- IC50 [6]: 2.9 µM
B9: Peptide No. 259 (peptide)
peptide: RFXTGXFGGLYPC
modifications: not fully specified; Pen at 3; His(Me) (mono-methylated histidine) at 6; disulfide; C-terminal amide

- IC50 [4]: 4 µM
Binder: RFXTGHXGGLYPC (Pen at 3; 2-Cl-Phe at 7; disulfide; C-terminal amide) [Peptide No. 221]

- Kd [2]: 1.3 µM
- Kd [3]: 1.1 µM
- IC50 [6]: 40 µM
Binder: RFXTGKFGGLYPC (Pen at 3; Sar at 9; NMeLeu at 10; disulfide; C-terminal amide) [Peptide No. 255]

- Kd [2]: 0.5 µM
- Kd [3]: 0.5 µM
- IC50 [6]: 5.5 µM
Binder: RFXTGRFGGLYPC (Pen at 3; Sar at 9; NMeLeu at 10; disulfide; C-terminal amide) [Peptide No. 256]

- Kd [2]: 5.2 µM
- Kd [3]: 6.4 µM
- IC50 [6]: 85 µM
B13: Peptide No. 264 (peptide)
peptide: RFXTGXFGGLYPC
modifications: Pen at 3; 4-PiperidylAla at 6; Sar at 9; NMeLeu at 10; disulfide; C-terminal amide

- IC50 [4]: 32 µM
Binder: RFXTGHXGGLYPC (Pen at 3; 3,3-Di-Phe at 7; disulfide; C-terminal amide) [Peptide No. 224]

- Kd [2]: 0.064 µM
- Kd [3]: 0.26 µM
- IC50 [6]: 1.2 µM
Binder: RFXTGXFGGLYPC (Pen at 3; 3PyridylAla at 6; Sar at 9; NMeLeu at 10; disulfide; C-terminal amide) [Peptide No. 250]

Further lines, the binder ahead of its results:

Binder: QRFXTGHXGGLYPCNGP (Pen at 4; 3-PyridylAla at 8; disulfide; C-terminal amide) [Peptide No. 59]
- IC50 [4]: 60 µM
- Kd [5]: 19 µM

Binder: QRFXTGHXGGLYPCNGP (Pen at 4; PheNHAc at 8; disulfide; C-terminal amide) [Peptide No. 94]
- Kd [5]: 270 µM

Binder: QRFXTGHXGGLYPCNGP (Pen at 4; 4-methoxy-Phe at 8; disulfide; C-terminal amide) [Peptide No. 56]
- IC50 [4]: 100 µM
- Kd [5]: 18 µM

Binder: RFXTGHFXLYPC (Pen at 3; X at 8 = 6,5-bicyclic dipeptide mimic; disulfide; C-terminal amide) [Peptide No. 204]
- IC50 [8]: 2.2 µM

B4: Peptide No. 176 (peptide)
peptide: QRFVTGHFG[dP]YYPANGP-NH2
modifications: N-terminus assumed
SMILES: CC(C)[C@H](NC(=O)[C@H](Cc1ccccc1)NC(=O)[C@H](CCCNC(=N)N)NC(=O)[C@@H](N)CCC(N)=O)C(=O)N[C@H](C(=O)NCC(=O)N[C@@H](Cc1c[nH]cn1)C(=O)N[C@@H](Cc1ccccc1)C(=O)NCC(=O)N1CCC[C@@H]1C(=O)N[C@@H](Cc1ccc(O)cc1)C(=O)N[C@@H](Cc1ccc(O)cc1)C(=O)N1CCC[C@H]1C(=O)N[C@@H](C)C(=O)N[C@@H](CC(N)=O)C(=O)NCC(=O)N1CCC[C@H]1C(N)=O)[C@@H](C)O
- IC50 [1]: 230 µM

B5: Peptide No. 190 (peptide)
peptide: QRFVTGHFG[dP]WYPINGP-NH2
modifications: N-terminus assumed
SMILES: CC[C@H](C)[C@H](NC(=O)[C@@H]1CCCN1C(=O)[C@H](Cc1ccc(O)cc1)NC(=O)[C@H](Cc1c[nH]c2ccccc12)NC(=O)[C@H]1CCCN1C(=O)CNC(=O)[C@H](Cc1ccccc1)NC(=O)[C@H](Cc1c[nH]cn1)NC(=O)CNC(=O)[C@@H](NC(=O)[C@@H](NC(=O)[C@H](Cc1ccccc1)NC(=O)[C@H](CCCNC(=N)N)NC(=O)[C@@H](N)CCC(N)=O)C(C)C)[C@@H](C)O)C(=O)N[C@@H](CC(N)=O)C(=O)NCC(=O)N1CCC[C@H]1C(N)=O
- IC50 [1]: 49 µM

Binder: QRFXTGHXGGLYPCNGP (Pen at 4; 2-napthylalanine at 8; disulfide; C-terminal amide) [Peptide No. 62]
- IC50 [4]: 90 µM
- Kd [5]: 11 µM

Binder: QRFCTGHFGGLYPXNGP (Pen at 14; disulfide; C-terminal amide) [Peptide No. 33]
- IC50 [9]: 18 µM

Binder: QRFXTGHWGGLYPCNGP (Pen at 4; disulfide; C-terminal amide) [Peptide No. 95]
- IC50 [4]: 26 µM

B7: Peptide No. 167 (peptide)
peptide: QRFVTGHFG[dP]LYPVANGP-NH2
modifications: N-terminus assumed
SMILES: CC(C)C[C@H](NC(=O)[C@H]1CCCN1C(=O)CNC(=O)[C@H](Cc1ccccc1)NC(=O)[C@H](Cc1c[nH]cn1)NC(=O)CNC(=O)[C@@H](NC(=O)[C@@H](NC(=O)[C@H](Cc1ccccc1)NC(=O)[C@H](CCCNC(=N)N)NC(=O)[C@@H](N)CCC(N)=O)C(C)C)[C@@H](C)O)C(=O)N[C@@H](Cc1ccc(O)cc1)C(=O)N1CCC[C@H]1C(=O)N[C@H](C(=O)N[C@@H](C)C(=O)N[C@@H](CC(N)=O)C(=O)NCC(=O)N1CCC[C@H]1C(N)=O)C(C)C
notes: printed with -VA- before NGP
- IC50 [1]: 93 µM

Binder: QRFXTGHXGGLYPCNGP (Pen at 4; 4-MePhe at 8; disulfide; C-terminal amide) [Peptide No. 90]
- Kd [5]: 0.2 µM

B8: Peptide No. 198 (peptide)
peptide: RFXTGHFXLYPC
modifications: Pen at 3; X at 8 = 5,5-bicyclic dipeptide mimic (drawing CHEM-US-00086); disulfide; C-terminal amide
- IC50 [8]: 23 µM

B10: Peptide No. 193 (peptide)
peptide: RFXTGHFXLYPC
modifications: Pen at 3; X at 8 = (3S)-3-amino-2-oxo-1-piperidine-acetic acid; disulfide; C-terminal amide
- IC50 [8]: 7.3 µM

B11: Peptide No. 80 (as printed in Table 18) (peptide)
peptide: RFXTGHFXLYPC
modifications: Pen at 3; X at 8 = 3-amino-N-1-carboxymethyl-2,3,4,5-tetrahydro-1H-[1]-benzazepine-2-one (drawing CHEM-US-00083); disulfide; C-terminal amide
- IC50 [8]: 159 µM

B12: Peptide No. 181 (peptide)
peptide: RFXTGHFXLYPC
modifications: Pen at 3; X at 8 = 3-amino-N-1-carboxymethyl-2,3,4,5-tetrahydro-1H-[1]-benzazepine-2-one (drawing CHEM-US-00084); disulfide; C-terminal amide
- IC50 [8]: 1.2 µM

Binder: QRFXTGHXGGLYPCNGP (Pen at 4; 3-MePhe at 8; disulfide; C-terminal amide) [Peptide No. 89]
- IC50 [4]: 4.1 µM
- Kd [5]: 0.67 µM

Binder: QRFXTGHFGGLYPCNGP (Pen at 4; Sar at 9; disulfide; C-terminal amide) [Peptide No. 111]
- Kd [10]: 2 µM

Binder: QRFXTGHXGGLYPCNGP (Pen at 4; 2-MePhe at 8; disulfide; C-terminal amide) [Peptide No. 88]
- IC50 [4]: 1 µM
- Kd [5]: 0.2 µM

Binder: QRFXTGHXGGLYPCNGP (Pen at 4; 2-pyridylalanine at 8; disulfide; C-terminal amide) [Peptide No. 58]
- IC50 [4]: 90 µM

Binder: QRFXTGHXGGLYPCNGP (Pen at 4; 4-amino-Phe at 8; disulfide; C-terminal amide) [Peptide No. 55]
- Kd [5]: 1 µM

Binder: QRFXTGHXGGLYPCNGP (Pen at 4; pentafluoro-Phe at 8; disulfide; C-terminal amide) [Peptide No. 57]
- Kd [5]: 70 µM
